This is an account of results in patent publication US20140087995A1 (published 2014).

The target of assay [1] is T1, human calcitonin receptor (human, UniProt P30988 25-474).
T1 construct: whole, on cells; also called hCTR; hCT
T1 sequence (looked up): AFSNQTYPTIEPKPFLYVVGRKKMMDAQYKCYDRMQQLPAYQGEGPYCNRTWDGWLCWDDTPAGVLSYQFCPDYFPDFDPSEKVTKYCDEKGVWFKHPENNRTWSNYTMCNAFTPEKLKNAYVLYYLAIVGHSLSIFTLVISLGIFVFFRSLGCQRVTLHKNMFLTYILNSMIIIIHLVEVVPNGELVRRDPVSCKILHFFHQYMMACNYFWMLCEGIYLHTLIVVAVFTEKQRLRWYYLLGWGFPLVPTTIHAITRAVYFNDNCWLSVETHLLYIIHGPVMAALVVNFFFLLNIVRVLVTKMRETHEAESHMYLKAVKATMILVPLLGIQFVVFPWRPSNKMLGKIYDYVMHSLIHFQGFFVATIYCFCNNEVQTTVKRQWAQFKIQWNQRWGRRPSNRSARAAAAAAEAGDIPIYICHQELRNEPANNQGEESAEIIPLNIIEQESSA
Nature of the assay: ratio of IC50 at human calcitonin receptor to IC50 at human amylin receptor (SPA competition assays). An outline of the steps:
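Competition binding by SPA with cell membranes (35 ng/μL) and SPA beads in 50 mM Hepes pH 7.4 with 1 mM CaCl2, 5 mM MgCl2, 0.1% OA and 0.02% Tween20. Incubated 120 min at 25 °C with shaking, then counted.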

Assay [2] deals with T1, human calcitonin receptor. Nature of the assay: SPA competition against 125I-calcitonin, membranes of BHK cells with human calcitonin receptor (Assay VII). An outline of the steps:
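BHK hCTR membranes 35 ng/μL + SPA beads 0.05 mg/well; buffer 50 mM Hepes pH 7.4, 1 mM CaCl2, 5 mM MgCl₂, 0.1% OA, 0.02% Tween20. 120 min, 25° C., shaking. Scintillation count; IC50 by one-site binding competition.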

In assay [3] the target is T2, human amylin receptor (amylin 3(a) receptor: human calcitonin receptor with RAMP-3) (human, UniProt P30988 25-474; O60896 24-148, limits assumed).
T2 sequence (looked up) 1: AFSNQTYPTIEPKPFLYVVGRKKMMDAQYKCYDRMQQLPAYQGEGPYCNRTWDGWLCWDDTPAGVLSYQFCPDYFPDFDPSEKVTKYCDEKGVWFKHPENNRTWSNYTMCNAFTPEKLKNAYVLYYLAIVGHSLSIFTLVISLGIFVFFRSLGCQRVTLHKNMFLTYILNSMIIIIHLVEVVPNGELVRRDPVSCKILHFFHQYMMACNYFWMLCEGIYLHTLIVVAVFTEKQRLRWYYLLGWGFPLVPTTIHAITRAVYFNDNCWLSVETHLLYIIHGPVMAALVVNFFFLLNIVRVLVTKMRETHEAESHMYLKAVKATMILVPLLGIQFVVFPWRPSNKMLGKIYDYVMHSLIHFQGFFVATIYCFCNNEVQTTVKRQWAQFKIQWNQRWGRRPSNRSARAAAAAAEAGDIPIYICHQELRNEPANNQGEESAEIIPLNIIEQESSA
T2 sequence (looked up) 2: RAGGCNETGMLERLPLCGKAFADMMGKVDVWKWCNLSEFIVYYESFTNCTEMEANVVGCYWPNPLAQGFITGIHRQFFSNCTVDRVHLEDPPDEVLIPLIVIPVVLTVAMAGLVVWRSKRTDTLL
Nature of the assay: cell-based or functional assay.

The target of assay [4] is T3, human calcitonin receptor (human, UniProt P30988 25-474).
T3 sequence (looked up): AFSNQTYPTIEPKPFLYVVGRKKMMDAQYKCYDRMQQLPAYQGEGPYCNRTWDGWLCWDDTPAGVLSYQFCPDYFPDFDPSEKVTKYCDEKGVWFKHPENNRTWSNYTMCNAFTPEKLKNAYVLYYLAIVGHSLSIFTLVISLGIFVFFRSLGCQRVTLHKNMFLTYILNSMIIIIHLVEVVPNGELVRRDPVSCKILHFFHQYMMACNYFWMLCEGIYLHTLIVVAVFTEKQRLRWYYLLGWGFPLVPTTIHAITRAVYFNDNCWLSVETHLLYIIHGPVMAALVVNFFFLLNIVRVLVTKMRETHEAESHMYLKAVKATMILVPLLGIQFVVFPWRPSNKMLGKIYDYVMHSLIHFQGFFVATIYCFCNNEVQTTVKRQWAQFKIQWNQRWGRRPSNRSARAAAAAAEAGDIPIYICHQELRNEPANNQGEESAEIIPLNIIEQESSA
Nature of the assay: cell-based or functional assay.

Numbered stars: 1 amine (or outer) side, 2 acyl side, 3 side chain; on linkers, the order of the positions; unused ones are H or OH. Bridge positions count the residues as written; N and C are the ends. Square brackets hold non-standard residues; d marks the D form. Side chains are listed from the residue outwards. Ends that are not written are not given here. * marks the point of attachment. C20 diacid = O=C(O)CCCCCCCCCCCCCCCCCCC(=O)*; γGlu = O=C(O)[C@H](CCC(=O)[*:2])N[*:1]

Broadly, the IC50 is the concentration needed to halve the response being measured.

B1: N^ε1-[(4S)-4-carboxy-4-(19-carboxynonadecanoylamino)butanoyl]-[Glu14,Arg17,Pro21,Pro27,Pro34,Arg35]-h-amylin (peptide)
peptide: K([γGlu-C20 diacid])CNTATCATQRLAEFLRHSSPNFGAIPSSTNVGPRTY-NH2
modifications: disulfide 2-7; N-terminus assumed
SMILES: CC[C@H](C)[C@H](NC(=O)[C@H](C)NC(=O)CNC(=O)[C@H](Cc1ccccc1)NC(=O)[C@H](CC(N)=O)NC(=O)[C@@H]1CCCN1C(=O)[C@H](CO)NC(=O)[C@H](CO)NC(=O)[C@H](Cc1c[nH]cn1)NC(=O)[C@H](CCCNC(=N)N)NC(=O)[C@H](CC(C)C)NC(=O)[C@H](Cc1ccccc1)NC(=O)[C@H](CCC(=O)O)NC(=O)[C@H](C)NC(=O)[C@H](CC(C)C)NC(=O)[C@H](CCCNC(=N)N)NC(=O)[C@H](CCC(N)=O)NC(=O)[C@@H](NC(=O)[C@H](C)NC(=O)[C@@H]1CSSC[C@H](NC(=O)[C@@H](N)CCCCNC(=O)CC[C@H](NC(=O)CCCCCCCCCCCCCCCCCCC(=O)O)C(=O)O)C(=O)N[C@@H](CC(N)=O)C(=O)N[C@@H]([C@@H](C)O)C(=O)N[C@@H](C)C(=O)N[C@@H]([C@@H](C)O)C(=O)N1)[C@@H](C)O)C(=O)N1CCC[C@H]1C(=O)N[C@@H](CO)C(=O)N[C@@H](CO)C(=O)N[C@H](C(=O)N[C@@H](CC(N)=O)C(=O)N[C@H](C(=O)NCC(=O)N1CCC[C@H]1C(=O)N[C@@H](CCCNC(=N)N)C(=O)N[C@H](C(=O)N[C@@H](Cc1ccc(O)cc1)C(N)=O)[C@@H](C)O)C(C)C)[C@@H](C)O
Consider B1, for which, in assay [1], the “Ratio hCT/hAmylin binding” value stood at 38.6. In addition, the IC50 in assay [2] was 6.3 nM.

B2: N^ε1-[(4S)-4-carboxy-4-[[(4S)-4-carboxy-4-(19-carboxynonadecanoylamino)butanoyl]amino]butanoyl]-[D-Asp14,Arg17,Pro21,Pro27,Arg35]-h-amylin (peptide)
peptide: K([γGlu-γGlu-C20 diacid])CNTATCATQRLA[dD]FLRHSSPNFGAIPSSTNVGSRTY-NH2
modifications: disulfide 2-7; N-terminus assumed
SMILES: CC[C@H](C)[C@H](NC(=O)[C@H](C)NC(=O)CNC(=O)[C@H](Cc1ccccc1)NC(=O)[C@H](CC(N)=O)NC(=O)[C@@H]1CCCN1C(=O)[C@H](CO)NC(=O)[C@H](CO)NC(=O)[C@H](Cc1c[nH]cn1)NC(=O)[C@H](CCCNC(=N)N)NC(=O)[C@H](CC(C)C)NC(=O)[C@H](Cc1ccccc1)NC(=O)[C@@H](CC(=O)O)NC(=O)[C@H](C)NC(=O)[C@H](CC(C)C)NC(=O)[C@H](CCCNC(=N)N)NC(=O)[C@H](CCC(N)=O)NC(=O)[C@@H](NC(=O)[C@H](C)NC(=O)[C@@H]1CSSC[C@H](NC(=O)[C@@H](N)CCCCNC(=O)CC[C@H](NC(=O)CC[C@H](NC(=O)CCCCCCCCCCCCCCCCCCC(=O)O)C(=O)O)C(=O)O)C(=O)N[C@@H](CC(N)=O)C(=O)N[C@@H]([C@@H](C)O)C(=O)N[C@@H](C)C(=O)N[C@@H]([C@@H](C)O)C(=O)N1)[C@@H](C)O)C(=O)N1CCC[C@H]1C(=O)N[C@@H](CO)C(=O)N[C@@H](CO)C(=O)N[C@H](C(=O)N[C@@H](CC(N)=O)C(=O)N[C@H](C(=O)NCC(=O)N[C@@H](CO)C(=O)N[C@@H](CCCNC(=N)N)C(=O)N[C@H](C(=O)N[C@@H](Cc1ccc(O)cc1)C(N)=O)[C@@H](C)O)C(C)C)[C@@H](C)O
For B2, the IC50 in assay [2] turned out to be 112 nM.

B3: N^ε1-[(4S)-4-carboxy-4-(19-carboxynonadecanoylamino)butanoyl]-[Asp14,Arg17,Pro21,Pro27,Pro34,Glu35]-h-amylin (peptide)
peptide: K([γGlu-C20 diacid])CNTATCATQRLADFLRHSSPNFGAIPSSTNVGPETY-NH2
modifications: disulfide 2-7 (inferred)
Consider B3, for which, in assay [3], the “Ratio hCT/hAmylin funct.” value amounted to 3.9 and the “hAmylin-R funct. EC50 (pM)” value amounted to 288 pM. Besides, the “hCTR funct. EC50 (pM)” value in assay [4] amounted to 1120 pM.

B4: N^ε1-[(4S)-4-carboxy-4-[[(4S)-4-carboxy-4-(19-carboxynonadecanoylamino)butanoyl]amino]butanoyl]-[Ser14,Arg17,Pro21,Pro27,Pro34,Glu35]-h-amylin (peptide)
peptide: K([γGlu-γGlu-C20 diacid])CNTATCATQRLASFLRHSSPNFGAIPSSTNVGPETY-NH2
modifications: disulfide 2-7 (inferred)
notes: also called compound 120
Consider B4, for which, in assay [3], the “Ratio hCT/hAmylin funct.” value came to 8.1 and the “hAmylin-R funct. EC50 (pM)” value was 109 pM. In addition, in assay [4], the “hCTR funct. EC50 (pM)” value was determined as 887 pM.
